# According to US20260167673A1, “NOVEL POLYPEPTIDE, POLYPEPTIDE DERIVATIVE AND USE THEREOF” (NANJING ANJI BIOTECHNOLOGY CO., LTD., priority 2023, published 2026):
# Where no end group is shown, it is not given here.
# T1: AQP2 protein (UniProt P41181 1-271, limits assumed)
# T1 construct: also called protein AQP2
# T1 sequence (looked up): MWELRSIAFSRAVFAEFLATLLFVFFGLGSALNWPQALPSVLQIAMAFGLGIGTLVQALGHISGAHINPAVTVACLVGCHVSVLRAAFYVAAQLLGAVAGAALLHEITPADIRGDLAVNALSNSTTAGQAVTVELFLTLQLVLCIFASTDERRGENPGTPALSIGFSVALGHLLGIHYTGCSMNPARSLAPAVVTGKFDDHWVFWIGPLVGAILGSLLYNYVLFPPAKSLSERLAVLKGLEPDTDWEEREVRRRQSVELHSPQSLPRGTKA
# Target: T1, AQP2 protein
# Experiment: microscale thermophoresis (MST); column head 'Affinity (µM)'
# Conditions: not given
# Method: Molecular docking simulation was performed on the micropeptide HMMW and a binding protein AQP2 thereof using MOE software, to identify predicted potential interaction sites. The docking simulation was divided into the following two groups: (1) random docking of an AQP2 homotetramer with the HMMW, without limiting a binding region; and (2) random docking of an AQP2 monomer with the HMMW, without limiting a binding region. Interaction sites obtained from the above two docking methods were integrated and analyzed, and all possible binding amino acids were selected as potential key sites for alanine (Ala) mutations. Due to alanine being the smallest chiral amino acid, the impact of a specific amino acid on an overall protein biological activity can be distinguished by systematically and sequentially substituting each amino acid in a sequence with Ala. The predicted polypeptides were obtained by solid-phase synthesis, and the affinity of different mutated polypeptides to the AQP2 protein was detected by microscale thermophoresis (MST) assay.
row,Molecule,Kd [µM]
1,micropeptide HMMW (51-residue micropeptide encoded by a lncRNA) peptide: MERAGVPGFSPRRSSVEAKMQSTSCSVRKSSTVTAWPAVVLLLSWGQRRGG,3.07
2,HMMW-28A (Alanine mutant of HMMW at position 28; solid-phase synthesis) peptide: MERAGVPGFSPRRSSVEAKMQSTSCSVAKSSTVTAWPAVVLLLSWGQRRGG,2.27
3,HMMW-42A (Alanine mutant of HMMW at position 42; solid-phase synthesis) peptide: MERAGVPGFSPRRSSVEAKMQSTSCSVRKSSTVTAWPAVVLALSWGQRRGG,0.25
4,HMMW-2A (Alanine mutant of HMMW at position 2; solid-phase synthesis) peptide: MARAGVPGFSPRRSSVEAKMQSTSCSVRKSSTVTAWPAVVLLLSWGQRRGG,2.5
5,HMMW-48A (Alanine mutant of HMMW at position 48; solid-phase synthesis) peptide: MERAGVPGFSPRRSSVEAKMQSTSCSVRKSSTVTAWPAVVLLLSWGQARGG,11.6
6,HMMW-31A (Alanine mutant of HMMW at position 31; solid-phase synthesis) peptide: MERAGVPGFSPRRSSVEAKMQSTSCSVRKSATVTAWPAVVLLLSWGQRRGG,3.06
7,HMMW-25A (Alanine mutant of HMMW at position 25; solid-phase synthesis) peptide: MERAGVPGFSPRRSSVEAKMQSTSASVRKSSTVTAWPAVVLLLSWGQRRGG,1.97
8,HMMW-43A (Alanine mutant of HMMW at position 43; solid-phase synthesis) peptide: MERAGVPGFSPRRSSVEAKMQSTSCSVRKSSTVTAWPAVVLLASWGQRRGG,0.36
9,HMMW-50A (Alanine mutant of HMMW at position 50; solid-phase synthesis) peptide: MERAGVPGFSPRRSSVEAKMQSTSCSVRKSSTVTAWPAVVLLLSWGQRRAG,0.55
10,HMMW-32A (Alanine mutant of HMMW at position 32; solid-phase synthesis) peptide: MERAGVPGFSPRRSSVEAKMQSTSCSVRKSSAVTAWPAVVLLLSWGQRRGG,2.01
11,HMMW-10A (Alanine mutant of HMMW at position 10; solid-phase synthesis) peptide: MERAGVPGFAPRRSSVEAKMQSTSCSVRKSSTVTAWPAVVLLLSWGQRRGG,4.03
12,HMMW-19A (Alanine mutant of HMMW at position 19; solid-phase synthesis) peptide: MERAGVPGFSPRRSSVEAAMQSTSCSVRKSSTVTAWPAVVLLLSWGQRRGG,5.11
13,HMMW-13A (Alanine mutant of HMMW at position 13; solid-phase synthesis) peptide: MERAGVPGFSPRASSVEAKMQSTSCSVRKSSTVTAWPAVVLLLSWGQRRGG,6.61
14,HMMW-9A (Alanine mutant of HMMW at position 9; solid-phase synthesis) peptide: MERAGVPGASPRRSSVEAKMQSTSCSVRKSSTVTAWPAVVLLLSWGQRRGG,3.95
15,HMMW-8A (Alanine mutant of HMMW at position 8; solid-phase synthesis) peptide: MERAGVPAFSPRRSSVEAKMQSTSCSVRKSSTVTAWPAVVLLLSWGQRRGG,14.8
16,HMMW-27A (Alanine mutant of HMMW at position 27; solid-phase synthesis) peptide: MERAGVPGFSPRRSSVEAKMQSTSCSARKSSTVTAWPAVVLLLSWGQRRGG,2.39
17,HMMW-17A (Alanine mutant of HMMW at position 17; solid-phase synthesis) peptide: MERAGVPGFSPRRSSVAAKMQSTSCSVRKSSTVTAWPAVVLLLSWGQRRGG,3.93
18,HMMW-22A (Alanine mutant of HMMW at position 22; solid-phase synthesis) peptide: MERAGVPGFSPRRSSVEAKMQATSCSVRKSSTVTAWPAVVLLLSWGQRRGG,3.21
19,HMMW-11A (Alanine mutant of HMMW at position 11; solid-phase synthesis) peptide: MERAGVPGFSARRSSVEAKMQSTSCSVRKSSTVTAWPAVVLLLSWGQRRGG,2.33
20,HMMW-45A (Alanine mutant of HMMW at position 45; solid-phase synthesis) peptide: MERAGVPGFSPRRSSVEAKMQSTSCSVRKSSTVTAWPAVVLLLSAGQRRGG,3.24
21,HMMW-41A (Alanine mutant of HMMW at position 41; solid-phase synthesis) peptide: MERAGVPGFSPRRSSVEAKMQSTSCSVRKSSTVTAWPAVVALLSWGQRRGG,4.32
22,HMMW-21A (Alanine mutant of HMMW at position 21; solid-phase synthesis) peptide: MERAGVPGFSPRRSSVEAKMASTSCSVRKSSTVTAWPAVVLLLSWGQRRGG,7.64
23,HMMW-12A (Alanine mutant of HMMW at position 12; solid-phase synthesis) peptide: MERAGVPGFSPARSSVEAKMQSTSCSVRKSSTVTAWPAVVLLLSWGQRRGG,1.12
24,HMMW-44A (Alanine mutant of HMMW at position 44; solid-phase synthesis) peptide: MERAGVPGFSPRRSSVEAKMQSTSCSVRKSSTVTAWPAVVLLLAWGQRRGG,5.23
25,HMMW-49A (Alanine mutant of HMMW at position 49; solid-phase synthesis) peptide: MERAGVPGFSPRRSSVEAKMQSTSCSVRKSSTVTAWPAVVLLLSWGQRAGG,20.8
26,HMMW-20A (Alanine mutant of HMMW at position 20; solid-phase synthesis) peptide: MERAGVPGFSPRRSSVEAKAQSTSCSVRKSSTVTAWPAVVLLLSWGQRRGG,2.59
27,HMMW-30A (Alanine mutant of HMMW at position 30; solid-phase synthesis) peptide: MERAGVPGFSPRRSSVEAKMQSTSCSVRKASTVTAWPAVVLLLSWGQRRGG,2.23
28,HMMW-40A (Alanine mutant of HMMW at position 40; solid-phase synthesis) peptide: MERAGVPGFSPRRSSVEAKMQSTSCSVRKSSTVTAWPAVALLLSWGQRRGG,1.19
29,HMMW-3A (Alanine mutant of HMMW at position 3; solid-phase synthesis) peptide: MEAAGVPGFSPRRSSVEAKMQSTSCSVRKSSTVTAWPAVVLLLSWGQRRGG,2.8

# Tested on: not listed separately
# Experiment: Solubility of the synthesized polypeptides
# Conditions: PBS/0.1% DMSO
row,Molecule,Solubility PBS/0.1% DMSO
1,MERAGVPGFSPRRSSVEAKMQCSVRKSSTVTAWPAVVLLLSWGQRRGG [HMMW-8],Soluble
2,MERAGVPGFSPRRSSKMQSTSCSVRKSSTVTAWPAVVLLLSWGQRRGG [HMMW-6],Soluble
3,MERAGVPGFSPRRSSVEAKMQSTSCSVRKSSTVTAWPAVVLLLSWRGG [HMMW-16],Soluble
4,MERAGVPGFSPRRSSVEASTSCSVRKSSTVTAWPAVVLLLSWGQRRGG [HMMW-7],Soluble
5,MERAGVPGFSPRVEAKMQSTSCSVRKSSTVTAWPAVVLLLSWGQRRGG [HMMW-5],Soluble
6,MERAGVPGFSPRRSSVEAKMQSTSCSVRKSSTVPAVVLLLSWGQRRGG [HMMW-12],Soluble
7,MERAGVSPRRSSVEAKMQSTSCSVRKSSTVTAWPAVVLLLSWGQRRGG [HMMW-3],Soluble
8,MERAGVPGFSPRRSSVEAKMQSTSCSVRKSSTVTAWPAVVLLGQRRGG [HMMW-15],Soluble
9,MERAGVPGFSPRRSSVEAKMQSTSCSVRKSSTVTAWPAVLSWGQRRGG [HMMW-14],Soluble
10,MERPGFSPRRSSVEAKMQSTSCSVRKSSTVTAWPAVVLLLSWGQRRGG [HMMW-2],Soluble
11,MERAGVPGFSPRRSSVEAKMQSTSRKSSTVTAWPAVVLLLSWGQRRGG [HMMW-9],Soluble
12,AGVPGFSPRRSSVEAKMQSTSCSVRKSSTVTAWPAVVLLLSWGQRRGG [HMMW-1],Soluble

# Same assay, conditions: polypeptides obtained by chemical solid-phase synthesis
row,Molecule,solubility
1,SVEAKMQSTSCSVRKSSTVTAWPAVVLLLSWGQRRGG [HMMW15-51],good solubility
2,MQSTSCSVRKSSTVTAWPAVVLLLSWGQRRGG [HMMW20-51],good solubility
3,GVPGFSPRRSSVEAKMQSTSCSVRKSSTVTAWPAVVLLLSWGQRRGG [HMMW5-51],good solubility
4,SPRRSSVEAKMQSTSCSVRKSSTVTAWPAVVLLLSWGQRRGG [HMMW10-51],good solubility
